Article doi:10.1101/2021.05.25.445634

Target: TnsC of the type V-K CRISPR-associated transposase system from S. hofmanni (ShCAST) (S. hofmanni)
Test: cryo-EM structure

- stoichiometry N: 12 subunits
Substance: TnsC of the type V-K CRISPR-associated transposase system from S. hofmanni (ShCAST) (natural protein)
